Laboratory results: patent US20030229922A1, “Materials and methods for the modification of plant cell wall polysaccharides” (GENESIS RESEARCH AND DEVELOPMENT CORPORATION LTD., priority 1998, published 2003)

Key:
[1] = test system: T1, OC[C@H]1O[C@@](CO)(O[C@H]2O[C@H](CO)[C@@H](O)[C@H](O)[C@H]2O)[C@@H](O)[C@@H]1O; assay: SUS (sucrose synthase) enzyme assay (purified recombinant protein); assay type: biochemical, Eucalyptus grandis; settings: other: E. grandis SUS; SEM 0.371
T1 construct: wild type
Text: (§1) Sense constructs containing sequences including the coding regions for UGP (SEQ ID NO: 79) and SUS (SEQ ID NO: 105) from Eucalyptus grandis, and UGP (SEQ ID NO: 80) from Pinus radiata were inserted into the expression vector pET16b (Clontech Laboratories Inc, Palo Alto, Calif.). The resulting constructs were transformed into E. coli XL1-Blue (Stratagene) and induced to produce recombinant protein by the addition of IPTG. Purified proteins were obtained using Ni^2+ column chromatography (Janknecht et al., Proc. Natl. Acad. Sci. USA, 88:8972-8976, 1991).
(§2) Enzyme assays for SUS (sucrose synthase) were performed using the methods described by Sebkova et al. Plant Physiol., 108:75-83, 1995. […] The KM^Sucrose of E. grandis is compared with the data reported by Delmer, J. Biol. Chem. 247:3822-3828, 1972 and Nakai et al., Biosci. Biotech. Biochem. 61:1500-1503, 1997.

[2] = test system: T2, O=c1ccn([C@@H]2O[C@H](COP(=O)(O)OP(=O)(O)O)[C@@H](O)[C@H]2O)c(=O)[nH]1; assay: as above; assay type: biochemical, Eucalyptus grandis; settings: other: E. grandis SUS; SEM 0.003
T2 construct: wild type
Text: as §1, §2

Eucalyptus grandis SUS (sucrose synthase), SEQ ID NO: 105 (DNA; protein SEQ ID NO: 106) (Eucalyptus grandis), sequence (chain, as listed by the source): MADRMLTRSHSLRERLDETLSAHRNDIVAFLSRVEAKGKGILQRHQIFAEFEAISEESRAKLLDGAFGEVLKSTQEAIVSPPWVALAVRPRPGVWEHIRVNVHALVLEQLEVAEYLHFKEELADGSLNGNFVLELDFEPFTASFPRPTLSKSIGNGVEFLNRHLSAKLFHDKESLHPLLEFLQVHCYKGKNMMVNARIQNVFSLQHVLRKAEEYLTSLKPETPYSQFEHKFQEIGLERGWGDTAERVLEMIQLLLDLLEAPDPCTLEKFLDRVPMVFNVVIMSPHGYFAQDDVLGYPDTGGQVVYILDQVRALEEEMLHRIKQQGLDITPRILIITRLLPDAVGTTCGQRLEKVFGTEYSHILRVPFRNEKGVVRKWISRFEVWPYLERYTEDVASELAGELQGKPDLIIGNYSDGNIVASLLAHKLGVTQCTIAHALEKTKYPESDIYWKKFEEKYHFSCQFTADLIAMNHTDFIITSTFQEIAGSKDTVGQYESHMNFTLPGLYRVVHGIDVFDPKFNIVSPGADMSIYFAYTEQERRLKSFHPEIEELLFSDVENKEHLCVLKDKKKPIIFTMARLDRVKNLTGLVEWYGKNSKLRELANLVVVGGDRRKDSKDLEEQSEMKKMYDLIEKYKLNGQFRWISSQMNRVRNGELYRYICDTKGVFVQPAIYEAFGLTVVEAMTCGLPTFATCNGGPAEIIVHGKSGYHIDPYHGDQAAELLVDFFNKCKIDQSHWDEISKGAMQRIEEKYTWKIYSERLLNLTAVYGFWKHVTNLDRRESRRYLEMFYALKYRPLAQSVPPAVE

Eucalyptus grandis SUS (sucrose synthase), SEQ ID NO: 105 (DNA; protein SEQ ID NO: 106) (Eucalyptus grandis)
Km [1]: 1650 µM | Km [2]: 28 µM
